Measurements as given in patent US20230295310A1 (ABCELLERA BIOLOGICS, published 2023).
Residue numbers refer to the chain shown, from its start.

B1: GOMP001_bsAb_039 (bispecific antibody, human IgG1, kappa, L234A L235A)
heavy 1: QVQLVQSGAEVKKPGASVKVSCKASGYTFTSHWMHWVRKAPGQGLEWIGEFNPSNGRTNYNEEFKSKATMTVDTSTNTAYMELSSLRSEDTAVYYCASRDYDYDGRYFDYWGQGTLVTVSSASTKGPSVFPLAPSSKSTSGGTAALGCLVADYFPEPVTVSWNSGALTSGVHTFPAVLQSSGLYSLSSVVTVPSSSLGTQTYICNVNHKPSNTKVDEKVEPKSCDKTHTCPPCPAPEAAGGPSVFLFPPKPKDTLMISRTPEVTCVVVDVSHEDPEVKFNWYVDGVEVHNAKTKPREEQYNSTYRVVSVLTVLHQDWLNGKEYKCKVSNKALPAPIEKTISKAKGQPREPQVYTLPPSREEMTDNQVSLTCLVKGFYPSDIAVEWESNGQPENNYKTTPPVLMSDGSFFLASKLTVDKSRWQQGNVFSCSVMHEALHNHYTQKSLSLSPG
light 1: RIQMTQSPSSLSASVGDRVTITCSASSSVTYMYWYQDKPGKAPKLLIYDTSNLASGVPSRFSGSGSGTDYTFTISSLQPEDIATYYCQQWSSHIFTFGQGTKVEIKRTVAAPSVFIFPPSDKQLKSGTARVVCLLNNFYPREAKVQWKVDNALQSGNSQESVTEQDSKDSTYSLSSTLTLSKADYEKHKVYACEVTHQGLSSPVTKSFNRGEC
heavy 2: EVQLVESGGGLVKTGGSHRLSCVASGFSFKKAWMNWVRYAPGKGLEWVGRIKRNSDGGTTDYAARVKGRFILSRDDSKNTLYLQMNSLKTEDTAVYYCTTLDSSSWYVGYYYMDVWGRGTTVTVSSASTKGPSVFPLAPSSKSTSGGTAALGCLVKDYFPEPVTVSWNSGALTSGVHTFPAVLQSSGLYSLSSVVTVPSSSLGTQTYICNVNHKPSNTKVDKKVEPKSCDKTHTCPPCPAPEAAGGPSVFLFPPKPKDTLMISRTPEVTCVVVDVSHEDPEVKFNWYVDGVEVHNAKTKPREEQYNSTYRVVSVLTVLHQDWLNGKEYKCKVSNKALPAPIEKTISKAKGQPRRPRVYTLPPSREEMTKNQVSLVCLVKGFYPSDIAVEWESNGQPENNYKTTPPVLDSDGSFFLYSVLTVDKSRWQQGNVFSCSVMHEALHNHYTQKSLSLSPG
light 2: DIQMTQSPSSVSASVGDRVTITCRASQDINNWLAWYQRKPGDAPKILIYTASNLQSGVPSRFSGSGSGTDFTLTISSLQPEDFATYFCQQAHSLPITFGQGTRLEIKRTVAAPSVFIFPPSDEQLKSGTASVVCLLNNFYPREAKVQWKVDNALQSGNSQESVTEQDSKDSTYSLSSTLTLSKADYEKHKVYACEVTHQGLSSPVTKSFNRGEC
B2: GOMP001_bsAb_040 (bispecific antibody, human IgG1, kappa, L234A L235A)
heavy 1: EVQLVESGGGLVKTGGSHRLSCVASGFSFKKAWMNWVRKAPGKGLEWVGRIKRNSDGGTTDYAAEVKGRFILSRDDSKNTLYLQMNSLKTEDTAVYYCTTLDSSSWYVGYYYMDVWGKGTTVTVSSASTKGPSVFPLAPSSKSTSGGTAALGCLVADYFPEPVTVSWNSGALTSGVHTFPAVLQSSGLYSLSSVVTVPSSSLGTQTYICNVNHKPSNTKVDEKVEPKSCDKTHTCPPCPAPEAAGGPSVFLFPPKPKDTLMISRTPEVTCVVVDVSHEDPEVKFNWYVDGVEVHNAKTKPREEQYNSTYRVVSVLTVLHQDWLNGKEYKCKVSNKALPAPIEKTISKAKGQPREPQVYTLPPSREEMTDNQVSLTCLVKGFYPSDIAVEWESNGQPENNYKTTPPVLMSDGSFFLASKLTVDKSRWQQGNVFSCSVMHEALHNHYTQKSLSLSPG
light 1: B1 light 2 with D1R, R38D, D42K, E123K, S131R
heavy 2: QVQLVQSGAEVKKPGASVKVSCKASGYTFTSHWMHWVRYAPGQGLEWIGEFNPSNGRTNYNEKFKSKATMTVDTSTNTAYMELSSLRSEDTAVYYCASRDYDYDGRYFDYWGRGTLVTVSSASTKGPSVFPLAPSSKSTSGGTAALGCLVKDYFPEPVTVSWNSGALTSGVHTFPAVLQSSGLYSLSSVVTVPSSSLGTQTYICNVNHKPSNTKVDKKVEPKSCDKTHTCPPCPAPEAAGGPSVFLFPPKPKDTLMISRTPEVTCVVVDVSHEDPEVKFNWYVDGVEVHNAKTKPREEQYNSTYRVVSVLTVLHQDWLNGKEYKCKVSNKALPAPIEKTISKAKGQPRRPRVYTLPPSREEMTKNQVSLVCLVKGFYPSDIAVEWESNGQPENNYKTTPPVLDSDGSFFLYSVLTVDKSRWQQGNVFSCSVMHEALHNHYTQKSLSLSPG
light 2: B1 light 1 with R1D, D37R, K41D, K122E, R130S
B3: GOMP001_bsAb_041 (bispecific antibody, human IgG1, kappa, L234A L235A)
heavy 1: B1 heavy 1
light 1: B1 light 1
heavy 2: B1 heavy 2 with H18L, S55T, T59P, T60A, I71T, N79K
light 2: B1 light 2 with T20I, Q37L, K39R, I46L, T50A, N53S, S76G, F87Y, K107Q
B4: GOMP001_bsAb_042 (bispecific antibody, human IgG1, kappa, L234A L235A)
heavy 1: B2 heavy 1 with H18L, S55T, T59P, T60A, I71T, N79K
light 1: RIQMTQSPSSVSASVGDRVIITCRASQDINNWLAWYLDRPGKAPKLLIYAASSLQSGVPSRFSGSGSGTDFTLTIGSLQPEDFATYYCQQAHSLPITFGQGTRLEIQRTVAAPSVFIFPPSDKQLKSGTARVVCLLNNFYPREAKVQWKVDNALQSGNSQESVTEQDSKDSTYSLSSTLTLSKADYEKHKVYACEVTHQGLSSPVTKSFNRGEC
heavy 2: B2 heavy 2
light 2: B1 light 1 with R1D, D37R, K41D, K122E, R130S
B5: GOMP001_bsAb_043 (bispecific antibody, human IgG1, kappa, L234A L235A)
heavy 1: B1 heavy 1
light 1: B1 light 1
heavy 2: B1 heavy 2 with H18L, S55T, T60A, I71T, N79K, Y82F, W106Y
light 2: B1 light 2 with I46L, N53S, S76G, F87Y

Each binder was assayed against EGFR on HeLa cells (UniProt P00533 25-1210, limits assumed) (assay: cell-based or functional assay).
For B1, the Max killing % was 81.1% and the “X… HeLa EC50” value was 0.374 nM. B2 was tested, and the Max killing % was 89.5% and the “X… HeLa EC50” value was 0.0391 nM. B3 was tested, and the Max killing % was 78.6% and the “X… HeLa EC50” value was 0.449 nM. In the case of B4, the Max killing % is reported as 84.8% and the “X… HeLa EC50” value is reported as 0.0341 nM. In the case of B5, the Max killing % is reported as 76.2% and the “X… HeLa EC50” value is reported as 0.102 nM.
